Substitutions are numbered along the chain they refer to. Names and notes keep the numbering of the source. No end group written: not given here. TMR = tetramethyl rhodamine dye
Experiments:
Assay in all cases: fluorescence polarisation; 25 °C; unlabeled Rb^P titrated against 1.5 nM TMR-E2F1^TD or 7.5 nM TMR-E7^LxCxE; 25 mM Tris pH 8.0, 200 mM NaCl, 1 mM DTT, 0.1% Tween-20; 2 min incubation; quadratic fit; apparent Kd for the variants, Kd for WT
Settings in all cases: both partners purified
[1] = target: T1, Rb^P S751Y (human, UniProt P06400 380-788, S751Y)
T1 construct: also called variant 72
T1 sequence (looked up): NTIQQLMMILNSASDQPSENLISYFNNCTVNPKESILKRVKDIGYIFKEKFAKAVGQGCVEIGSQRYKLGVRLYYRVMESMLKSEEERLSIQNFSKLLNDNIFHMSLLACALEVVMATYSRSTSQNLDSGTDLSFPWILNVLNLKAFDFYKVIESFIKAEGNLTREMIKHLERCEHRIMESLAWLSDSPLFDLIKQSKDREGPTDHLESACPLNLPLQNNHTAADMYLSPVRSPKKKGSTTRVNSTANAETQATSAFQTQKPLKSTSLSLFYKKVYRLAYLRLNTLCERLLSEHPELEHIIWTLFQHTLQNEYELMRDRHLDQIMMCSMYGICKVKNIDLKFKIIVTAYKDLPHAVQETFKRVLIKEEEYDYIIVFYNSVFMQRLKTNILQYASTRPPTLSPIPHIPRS

[2] = target: T2, Rb^P M695I (human, UniProt P06400 380-788, M695I)
T2 construct: also called variant 61
T2 sequence (looked up): T1 sequence (looked up) with M316I, Y372S

[3] = target: T3, Rb^P H686Y (human, UniProt P06400 380-788, H686Y)
T3 construct: also called variant 58
T3 sequence (looked up): T1 sequence (looked up) with H307Y, Y372S

[4] = target: T4, Rb^P R451S (human, UniProt P06400 380-788, R451S)
T4 construct: also called variant 7
T4 sequence (looked up): T1 sequence (looked up) with R72S, Y372S

[5] = target: T5, Rb^P E539D (human, UniProt P06400 380-788, E539D)
T5 construct: also called variant 24
T5 sequence (looked up): T1 sequence (looked up) with E160D, Y372S

B1: TMR-E2F1^TD, peptide of the E2F1 transactivation domain (peptide)
peptide: {TMR}-GEGIRDLFDCDFGDLTPLD
notes: also called E2F^TD; source: synthetic peptide, bought: GenScript
B1 showed a Kd [1] of 33 nM, a Kd [2] of 43 nM and a Kd [3] of 20 nM. It also gave a Kd [4] of 26 nM and a Kd [5] of 55 nM.

B2: TMR-E7^LxCxE, LxCxE peptide of the E7 oncoprotein from HPV (peptide)
peptide: DLYCYEQLN
modifications: also: TMR label, position not given here
notes: source: synthetic peptide, bought: GenScript
B2 gave a Kd [1] of 127 nM, a Kd [2] of 11 nM and a Kd [3] of 5 nM. For the same binder, the Kd [4] was 9 nM and the Kd [5] was 7 nM.

— article PMC11931385, “Structural and functional analysis of cancer-associated missense variants in the retinoblastoma protein pocket domain” (The Journal of Biological Chemistry, 2025)
